Assay results from patent US20110262447A1 (RAMOT AT TEL AVIV UNIVERSITY, published 2011).

What was measured:
Bovine Serum Albumin = molecular target: T1, Bovine Serum Albumin (bovine, UniProt P02769 25-607); assay: ELISA, group 5, BSA
T1 construct: also called BSA

Streptavidin = Streptavidin (UniProt P22629 37-163); assay: ELISA, group 6, Streptavidin
[1] = molecular target: multiple antigen peptide presenting amino acids 144-153 of the human prion protein (MAP-PrP […]) (human); assay: ELISA, group 3, MAP-PrP

Chain of Streptavidin (P22629 37-163 limits assumed): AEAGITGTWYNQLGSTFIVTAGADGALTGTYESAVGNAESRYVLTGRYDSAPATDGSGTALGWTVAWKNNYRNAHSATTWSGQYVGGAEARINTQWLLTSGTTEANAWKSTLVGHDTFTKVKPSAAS
T1 sequence (P02769 25-607 limits assumed): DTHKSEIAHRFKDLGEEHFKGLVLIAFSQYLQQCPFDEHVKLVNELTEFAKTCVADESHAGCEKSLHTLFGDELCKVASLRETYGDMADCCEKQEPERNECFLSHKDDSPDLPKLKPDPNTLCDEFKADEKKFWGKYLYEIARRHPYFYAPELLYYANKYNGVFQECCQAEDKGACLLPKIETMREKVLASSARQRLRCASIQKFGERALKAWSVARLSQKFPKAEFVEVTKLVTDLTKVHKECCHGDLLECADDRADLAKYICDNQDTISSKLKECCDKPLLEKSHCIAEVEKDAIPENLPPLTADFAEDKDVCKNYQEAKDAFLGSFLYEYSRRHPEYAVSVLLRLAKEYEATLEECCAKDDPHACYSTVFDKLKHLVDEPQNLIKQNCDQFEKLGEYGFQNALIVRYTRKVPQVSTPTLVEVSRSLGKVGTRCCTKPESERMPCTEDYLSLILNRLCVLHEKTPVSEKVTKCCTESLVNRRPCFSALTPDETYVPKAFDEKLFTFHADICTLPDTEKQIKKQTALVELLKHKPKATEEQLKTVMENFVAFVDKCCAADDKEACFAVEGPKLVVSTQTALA

Binder | binding result (Bovine Serum Albumin) | binding result (Streptavidin) | binding result [1]
A4 scFv (scFv) scFv: VQLLESGGGLVQPGGSLRLSCAASGFTFSGYWMHWVRQAPGKGLEWVSEISGSGDSTHYGDSVKGRFTISRDNSKNTLYLQMNSLRAEDTAVYYCARGRNGSLDYWGQGTLVTVSSGSAGGGGSGGGGSGGGGSDIVLTQPPSASGTPGQRVTISCTGNSSNIGAGYDVHWYQQLPGKAPKLLIYSNNQRPSGVPDRFSGSKSGTSASLAISGLRSEDEADYYCAAWDDSLSSVVFGGGTKLTV | no binding (tested: not given on the sheet) | no binding (tested: not given on the sheet) | –
B6 scFv (scFv) scFv: VQLLESGGGLVQPGGSLRLSCAASGFTFSGYWMHWVRQAPGKGLEWVSEISGSGDSTHYGDSVKGRFTISRDNSKNTLYLQMNSLRAEDTAVYYCARGRNGSLDYWGQGTLVTVSSGSAGGGGSGGGGSGGGGSDIVLTQPPSASGTPGQRVTISCTGSSANIGAGYDVHWYQQLPGKAPKLLIYDNDKRPSGVPDRFSGSKSGTSASLAISGLRSEDEADYYCAAWDDRLSGVVFGGGTKVTV | no binding (tested: not given on the sheet) | no binding (tested: not given on the sheet) | no binding (tested: not given on the sheet)
F2 scFv (scFv) scFv: VQLLESGGGLVQPGGSLRLSCAASGFTFSGYWMHWVRQAPGKGLEWVSEISGSGDSTHYGDSVKGRFTISRDNSKNTLYLQMNSLRAEDTAVYYCARGRNGSLDYWGQGTLVTVSSGSAGGGGSGGGGSGGGGSDIVLTQPPSASGTPGQRVTISCSGTSSNIGADYDVHWYQQLPGKAPKLLIYDNNKRPSGVSDRFSGSKSGTSASLAISGLRSEDEADYYCAAWDSSLSSVVFGGGTQLTV | – | no binding (tested: not given on the sheet) | no binding (tested: not given on the sheet)
